Experiment [1] has as its target viral glycoproteins (H and F); Nectin-4 (Measles virus, UniProt Q786F3). The experiment is described as follows: beta-galactosidase complementation-based fusion assay, Nectin-4 target cells.
Experiment [2] addresses viral glycoproteins (H and F); CD150. As to the kind of experiment: beta-galactosidase complementation-based fusion assay, CD150 target cells.
The target in experiment [3] is measles virus (MeV) fusion protein F, wild type, expressed on cells (measles virus) (UniProt Q786F3). The experiment is described as follows: cell-based or functional assay.

Like-named read-outs stand apart in the source and are kept apart here. Bounds are passed on as bounds.

For `CC[C@H](C)[C@H](NC(=O)[C@H](C)NC(=O)[C@H](CC(N)=O)NC(=O)CNC(=O)[C@H](CC(C)C)NC(=O)[C@H](CC(N)=O)NC(=O)[C@@H](NC(=O)CNC(=O)[C@@H](NC(=O)[C@H](CC(=O)O)NC(=O)[C@H](CC(C)C)NC(=O)[C@H](CCCNC(=N)N)NC(=O)[C@H](CCC(=O)O)NC(=O)[C@H](CC(C)C)NC(=O)[C@H](CO)NC(=O)[C@@H](NC(=O)[C@@H]1CCCN1C(=O)[C@@H]1CCCN1C(=O)CNC(=O)[C@H](CO)NC(=O)CNC(=O)[C@H](CO)NC(=O)CNC(=O)CNC(=O)[C@H](Cc1ccccc1)NC(=O)[C@@H](Cc1ccccc1)NC(=O)OCc1ccccc1)[C@@H](C)CC)C(C)C)[C@@H](C)O)C(=O)N[C@@H](C)C(=O)N[C@@H](CCCCN)C(=O)N[C@@H](CC(C)C)C(=O)N[C@@H](CCC(=O)O)C(=O)N[C@@H](CC(=O)O)C(=O)N[C@@H](C)C(=O)N[C@@H](CCCCN)C(=O)N[C@@H](CCC(=O)O)C(=O)N[C@@H](CC(C)C)C(=O)N[C@@H](CC(C)C)C(=O)N[C@@H](CCC(=O)O)C(=O)N[C@@H](CO)C(=O)N[C@@H](CO)C(=O)N[C@@H](CC(=O)O)C(=O)N[C@@H](CCC(N)=O)C(=O)N[C@H](C(=O)N[C@@H](CC(C)C)C(=O)N[C@@H](CCCNC(=N)N)C(=O)N[C@@H](CSC1CC(=O)N(CCCC(=O)NCCOCCOCCOCCOCCC(=O)NCCN(CCNC(=O)CCOCCOCCOCCOCCNC(=O)CCCN2C(=O)CC(SC[C@H](NC(=O)[C@H](CCCNC(=N)N)NC(=O)[C@H](CC(C)C)NC(=O)[C@@H](NC(=O)[C@H](CCC(N)=O)NC(=O)[C@H](CC(=O)O)NC(=O)[C@H](CO)NC(=O)[C@H](CO)NC(=O)[C@H](CCC(=O)O)NC(=O)[C@H](CC(C)C)NC(=O)[C@H](CC(C)C)NC(=O)[C@H](CCC(=O)O)NC(=O)[C@H](CCCCN)NC(=O)[C@H](C)NC(=O)[C@H](CC(=O)O)NC(=O)[C@H](CCC(=O)O)NC(=O)[C@H](CC(C)C)NC(=O)[C@H](CCCCN)NC(=O)[C@H](C)NC(=O)[C@@H](NC(=O)[C@H](C)NC(=O)[C@H](CC(N)=O)NC(=O)CNC(=O)[C@H](CC(C)C)NC(=O)[C@H](CC(N)=O)NC(=O)[C@@H](NC(=O)CNC(=O)[C@@H](NC(=O)[C@H](CC(=O)O)NC(=O)[C@H](CC(C)C)NC(=O)[C@H](CCCNC(=N)N)NC(=O)[C@H](CCC(=O)O)NC(=O)[C@H](CC(C)C)NC(=O)[C@H](CO)NC(=O)[C@@H](NC(=O)[C@@H]3CCCN3C(=O)[C@@H]3CCCN3C(=O)CNC(=O)[C@H](CO)NC(=O)CNC(=O)[C@H](CO)NC(=O)CNC(=O)CNC(=O)[C@H](Cc3ccccc3)NC(=O)[C@@H](Cc3ccccc3)NC(=O)OCc3ccccc3)[C@@H](C)CC)C(C)C)[C@@H](C)O)[C@@H](C)CC)[C@@H](C)CC)C(=O)O)C2=O)CCO[C@H]2CC[C@@]3(C)C(=CC[C@H]4[C@@H]5CC[C@H]([C@H](C)CCCC(C)C)[C@@]5(C)CC[C@@H]43)C2)C1=O)C(=O)O)[C@@H](C)CC` (some centres unmarked), the IC50 in experiment [1] was determined as 0.0602 ± 0.0655 µM; in experiment [2], 0.0589 ± 0.0698 µM. In addition, the figures for the IC90 in experiment [1] (read-out: Nectin4 IC90) and in experiment [2] (read-out: CD150 IC90) were 0.22 ± 0.189 µM and 0.287 ± 0.0245 µM, respectively.
Consider `CC[C@H](C)[C@H](NC(=O)[C@H](C)NC(=O)[C@H](CC(N)=O)NC(=O)CNC(=O)[C@H](CC(C)C)NC(=O)[C@H](CC(N)=O)NC(=O)[C@@H](NC(=O)CNC(=O)[C@@H](NC(=O)[C@H](CC(=O)O)NC(=O)[C@H](CC(C)C)NC(=O)[C@H](CCCNC(=N)N)NC(=O)[C@H](CCC(=O)O)NC(=O)[C@H](CC(C)C)NC(=O)[C@H](CO)NC(=O)[C@@H](NC(=O)[C@@H]1CCCN1C(=O)[C@@H]1CCCN1C(C)=O)[C@@H](C)CC)C(C)C)[C@@H](C)O)C(=O)N[C@@H](C)C(=O)N[C@@H](CCCCN)C(=O)N[C@@H](CC(C)C)C(=O)N[C@@H](CCC(=O)O)C(=O)N[C@@H](CC(=O)O)C(=O)N[C@@H](C)C(=O)N[C@@H](CCCCN)C(=O)N[C@@H](CCC(=O)O)C(=O)N[C@@H](CC(C)C)C(=O)N[C@@H](CC(C)C)C(=O)N[C@@H](CCC(=O)O)C(=O)N[C@@H](CO)C(=O)N[C@@H](CO)C(=O)N[C@@H](CC(=O)O)C(=O)N[C@@H](CCC(N)=O)C(=O)N[C@H](C(=O)N[C@@H](CC(C)C)C(=O)N[C@@H](CCCNC(=N)N)C(=O)NCC(=O)N[C@@H](CO)C(=O)NCC(=O)N[C@@H](CO)C(=O)NCC(=O)N[C@@H](CSC1CC(=O)N(CCC(=O)NCCOCCOCCOCCOCCOCCOCCOCCOCCOCCOCCOCCNC(=O)CCN2C(=O)CC(SC[C@H](NC(=O)CNC(=O)[C@H](CO)NC(=O)CNC(=O)[C@H](CO)NC(=O)CNC(=O)[C@H](CCCNC(=N)N)NC(=O)[C@H](CC(C)C)NC(=O)[C@@H](NC(=O)[C@H](CCC(N)=O)NC(=O)[C@H](CC(=O)O)NC(=O)[C@H](CO)NC(=O)[C@H](CO)NC(=O)[C@H](CCC(=O)O)NC(=O)[C@H](CC(C)C)NC(=O)[C@H](CC(C)C)NC(=O)[C@H](CCC(=O)O)NC(=O)[C@H](CCCCN)NC(=O)[C@H](C)NC(=O)[C@H](CC(=O)O)NC(=O)[C@H](CCC(=O)O)NC(=O)[C@H](CC(C)C)NC(=O)[C@H](CCCCN)NC(=O)[C@H](C)NC(=O)[C@@H](NC(=O)[C@H](C)NC(=O)[C@H](CC(N)=O)NC(=O)CNC(=O)[C@H](CC(C)C)NC(=O)[C@H](CC(N)=O)NC(=O)[C@@H](NC(=O)CNC(=O)[C@@H](NC(=O)[C@H](CC(=O)O)NC(=O)[C@H](CC(C)C)NC(=O)[C@H](CCCNC(=N)N)NC(=O)[C@H](CCC(=O)O)NC(=O)[C@H](CC(C)C)NC(=O)[C@H](CO)NC(=O)[C@@H](NC(=O)[C@@H]3CCCN3C(=O)[C@@H]3CCCN3C(C)=O)[C@@H](C)CC)C(C)C)[C@@H](C)O)[C@@H](C)CC)[C@@H](C)CC)C(=O)O)C2=O)C1=O)C(=O)O)[C@@H](C)CC` (some centres unmarked) [[HRC450-485]2-peg11], for which the IC50 in experiment [1] was over 4 µM; in experiment [1] (read-out: Nectin4 IC50, Table 3 (extended version)), over 4 µM. Moreover, the IC90 in experiment [1] and in experiment [1] (read-out: Nectin4 IC90) was over 10 µM throughout.
In experiment [3], “FIP (no GSGSG), Monomer N-Maleimide (peptide)” came in with an IC50, beta-galactosidase complementation-based fusion assay, Nectin-4 target cells of over 1 µM and an IC90, beta-galactosidase complementation-based fusion assay, Nectin-4 target cells of over 1 µM.
Consider FIP (peptide), for which, in experiment [3], the IC50, beta-galactosidase complementation-based fusion assay, Nectin-4 target cells was found to be 9.72 µM and the IC90, beta-galactosidase complementation-based fusion assay, Nectin-4 target cells was over 10 µM.
In experiment [3], FIP-HRC450-485 (no GSGSG) (peptide) displayed an IC50, beta-galactosidase complementation-based fusion assay, Nectin-4 target cells of 2.77 µM and an IC90, beta-galactosidase complementation-based fusion assay, Nectin-4 target cells of 6.37 µM.
In experiment [3], “FIP-HRC450-485 (no GSGSG), Monomer N-Maleimide (peptide)” showed an IC50, beta-galactosidase complementation-based fusion assay, Nectin-4 target cells of over 0.7 µM and an IC90, beta-galactosidase complementation-based fusion assay, Nectin-4 target cells of over 10 µM.
In experiment [3], “FIP-HRC450-485, Monomer N-Maleimide (peptide)” came in with an IC50, beta-galactosidase complementation-based fusion assay, Nectin-4 target cells of over 1 µM and an IC90, beta-galactosidase complementation-based fusion assay, Nectin-4 target cells of over 1 µM.
On to “FIP-HRC450-485-chol (no GSGSG) (peptide)”, for which, in experiment [3], the IC50, beta-galactosidase complementation-based fusion assay, Nectin-4 target cells stood at 0.0859 µM and the IC90, beta-galactosidase complementation-based fusion assay, Nectin-4 target cells was found to be 0.54 µM.
For the compound “FIP-HRC450-485-peg4-chol (no GSGSG) (peptide)”, in experiment [3], the IC50, beta-galactosidase complementation-based fusion assay, Nectin-4 target cells came to 0.707 µM and the IC90, beta-galactosidase complementation-based fusion assay, Nectin-4 target cells amounted to 0.825 µM.
For FIP-chol (no GSGSG) (peptide) the same measures were over 1 µM and over 1 µM.
In experiment [3], FIP-peg4-chol (no GSGSG) (peptide) registered an IC50, beta-galactosidase complementation-based fusion assay, Nectin-4 target cells of over 0.7 µM and an IC90, beta-galactosidase complementation-based fusion assay, Nectin-4 target cells of over 1 µM.

Broadly, the IC50 is the point on the concentration scale where inhibition reaches its midpoint. Broadly, the IC90 is the concentration needed for an effect of 90%.

For the origin of these results see patent publication US20230014151A1, “COMBINATION ANTIVIRAL THERAPY FOR MEASLES” (The Trustees of Columbia University in the City of New York, priority 2019, published 2023).
